Data reported in publication PMC3407216.

Experiments:
[1] = target: Matrix metalloproteinase-2 (human (endogenous in tumor cells)) (UniProt P08253)
[2] = target: MMP-2–cleaved fibronectin (human)

αvβ3 integrin, sequence (P05106 whole entry, looked up): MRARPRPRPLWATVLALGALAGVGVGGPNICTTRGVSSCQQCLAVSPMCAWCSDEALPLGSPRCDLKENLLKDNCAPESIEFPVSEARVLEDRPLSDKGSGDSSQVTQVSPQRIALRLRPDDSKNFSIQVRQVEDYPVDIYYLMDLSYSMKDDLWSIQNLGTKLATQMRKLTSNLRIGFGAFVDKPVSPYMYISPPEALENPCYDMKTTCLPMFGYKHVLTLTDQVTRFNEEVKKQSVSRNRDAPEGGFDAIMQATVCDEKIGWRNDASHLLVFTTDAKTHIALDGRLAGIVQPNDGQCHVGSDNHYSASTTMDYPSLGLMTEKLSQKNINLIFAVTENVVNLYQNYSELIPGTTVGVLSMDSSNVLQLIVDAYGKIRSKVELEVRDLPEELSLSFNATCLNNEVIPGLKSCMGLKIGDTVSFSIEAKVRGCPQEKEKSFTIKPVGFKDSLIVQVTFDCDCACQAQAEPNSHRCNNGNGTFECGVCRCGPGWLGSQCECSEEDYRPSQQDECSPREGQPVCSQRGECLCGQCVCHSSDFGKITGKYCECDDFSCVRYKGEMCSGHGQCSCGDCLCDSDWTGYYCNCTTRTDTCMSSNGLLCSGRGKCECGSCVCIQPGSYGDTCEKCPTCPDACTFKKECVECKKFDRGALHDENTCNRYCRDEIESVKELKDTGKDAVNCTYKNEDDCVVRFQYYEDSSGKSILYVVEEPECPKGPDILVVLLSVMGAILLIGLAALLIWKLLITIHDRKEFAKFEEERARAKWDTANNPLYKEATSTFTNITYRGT
UniProt P08253, sequence (P08253 30-660): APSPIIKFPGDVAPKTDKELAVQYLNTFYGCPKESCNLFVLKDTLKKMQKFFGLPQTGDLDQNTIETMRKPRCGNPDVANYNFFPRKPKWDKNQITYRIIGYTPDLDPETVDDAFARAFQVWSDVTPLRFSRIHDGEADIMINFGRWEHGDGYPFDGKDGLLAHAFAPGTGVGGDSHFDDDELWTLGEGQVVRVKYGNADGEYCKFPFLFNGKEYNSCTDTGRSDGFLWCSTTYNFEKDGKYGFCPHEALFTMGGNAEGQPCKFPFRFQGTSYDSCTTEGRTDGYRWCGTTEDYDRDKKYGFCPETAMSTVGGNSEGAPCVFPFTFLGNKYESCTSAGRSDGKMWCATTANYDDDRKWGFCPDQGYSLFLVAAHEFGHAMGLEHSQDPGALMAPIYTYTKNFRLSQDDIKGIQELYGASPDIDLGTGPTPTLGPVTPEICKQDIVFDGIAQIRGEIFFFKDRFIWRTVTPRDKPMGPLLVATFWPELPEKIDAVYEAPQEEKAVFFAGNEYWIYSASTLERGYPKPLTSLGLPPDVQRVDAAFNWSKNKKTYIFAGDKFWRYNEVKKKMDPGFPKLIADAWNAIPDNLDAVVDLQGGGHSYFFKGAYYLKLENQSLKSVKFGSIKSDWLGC

“αvβ3 integrin (from UniProt P05106 27-788) (receptor)” was tested, and the static adhesion of fluorescently stained A375 cells to wells coated with APMA-activated recombinant human MMP-2, compared with cells blocked with RGD peptides [1] was > 59% and the adhesion of M21 melanoma cells (30 min) to plates coated with MMP-2–cleaved fibronectin compared with full-length fibronectin; no obvious changes with M21-L cells that lack αvβ3 integrin [2] was > 34%.
